Laboratory results as given in article PMC7483523, “Affinity of Skp to OmpC revealed by single-molecule detection” (Scientific Reports, 2020).
Changes are numbered by the printed parent chain. In names and notes the source's numbering stands.

Experiments:
[1] = biological target: T1, OmpC G8C-D335C labelled with AF555 and AF647 (UniProt P06996 22-367, G8C | D335C, fluorescent dyes AF555 and AF647 (maleimide) on the cysteines); experiment: pscFCS (portion-selectively-chosen FCS on smFRET subpopulations); 50 pM dual-labelled OmpC diluted from 8 M urea into wild-type Skp at subnanomolar to nanomolar concentrations, buffer C, 0.02% tween 20, 23 °C; diffusion times of bound and unbound OmpC compared in the same sample; settings: both partners purified
T1 construct: OmpC, outer membrane protein; plasmid pET28a-ompC as template; Unfolded OmpC, diluted from urea; Residue numbers fit the mature protein without its signal peptide (surmised); also called dual-labelled OmpC; intramolecular labelled OmpC G8C-D335C; source: E. coli BL21(DE3), purified (Ni-NTA) in 8 M urea; diluted from 8 M urea into the sample
T1 sequence (looked up): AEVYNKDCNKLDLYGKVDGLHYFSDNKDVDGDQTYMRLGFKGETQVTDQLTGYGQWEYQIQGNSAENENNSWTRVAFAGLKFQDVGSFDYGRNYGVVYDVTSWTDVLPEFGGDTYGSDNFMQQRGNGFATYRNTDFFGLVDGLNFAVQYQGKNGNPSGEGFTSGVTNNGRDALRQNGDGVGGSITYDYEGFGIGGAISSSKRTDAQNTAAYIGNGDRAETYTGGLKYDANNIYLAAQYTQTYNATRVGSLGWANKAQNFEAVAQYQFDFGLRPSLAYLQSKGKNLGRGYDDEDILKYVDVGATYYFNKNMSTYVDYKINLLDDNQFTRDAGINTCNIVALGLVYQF

[2] = biological target: T2, OmpC G8C-L139C, dual-labelled (UniProt P06996 22-367, G8C | L139C, dual-labelled with fluorescent dyes on the cysteines (dyes not named for this mutant)); experiment: smFRET (intramolecular, on dual-labelled OmpC); 50 pM dual-labelled OmpC diluted from 8 M urea into micromolar wild-type Skp, buffer C, 0.02% tween 20, 23 °C; peak areas of Eapp 0.1 and 0.3 fitted against [Skp]0; settings: both partners purified
T2 construct: OmpC, outer membrane protein; plasmid pET28a-ompC as template; also called OmpC double mutant; source: E. coli BL21(DE3), purified (Ni-NTA) in 8 M urea
T2 sequence (looked up): T1 sequence (looked up) with L139C, C335D

[3] = biological target: T3, OmpC·Skp3 complex (dual-labelled OmpC G8C-D335C with wild-type Skp) (UniProt P06996 22-367; P0AEU7 21-161, G8C | D335C, fluorescent dyes AF555 and AF647 (maleimide) on the cysteines); experiment: as above; settings: both partners purified
T3 construct: OmpC, as the chain of m4; Skp, as the chain of m1; source: formed in the sample from purified urea-denatured OmpC G8C-D335C (50 pM) and purified wild-type Skp; copies: 1 + 3
T3 sequence 1: T1 sequence (looked up)
T3 sequence 2: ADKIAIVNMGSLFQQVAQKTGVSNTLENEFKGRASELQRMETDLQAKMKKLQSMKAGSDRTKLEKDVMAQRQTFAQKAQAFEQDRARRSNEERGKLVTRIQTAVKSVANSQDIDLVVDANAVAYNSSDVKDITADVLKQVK

[4] = biological target: T4, OmpC G8C-I232C, dual-labelled (UniProt P06996 22-367, G8C | I232C, dual-labelled with fluorescent dyes on the cysteines (dyes not named for this mutant)); experiment: as above; settings: both partners purified
T4 construct: OmpC, outer membrane protein; plasmid pET28a-ompC as template; also called OmpC double mutant; source: E. coli BL21(DE3), purified (Ni-NTA) in 8 M urea
T4 sequence (looked up): T1 sequence (looked up) with I232C, C335D

[5] = biological target: the molecule itself; experiment: fluorescence correlation spectroscopy (FCS); trimer to monomers; 0.4 nM Skp D128C-Cy3B as tracer in wild-type Skp of various concentrations, denatured by 4 M urea and diluted 100-fold in buffer C (50 mM PB, 100 mM NaCl, pH 7.0), 0.02% tween 20, 23 °C; effective stoichiometric number from the diffusion time fitted against [Skp]0
[6] = biological target: T5, OmpC G8C-AF555 with an AviTag on the C-terminus, biotinylated (UniProt P06996 22-367, G8C, AF555 (maleimide) on the cysteine of G8C; biotin on the AviTag's lysine side chain); experiment: TIRF colocalization (single molecule); apparent; biotinylated OmpC G8C-AF555 (50 pM) immobilised on a streptavidin coverslip; Skp D128C-AF647 from 500 pM to 8 nM in buffer C, 0.02% tween 20, oxygen scavenging system, 23 °C; alternating laser excitation 532 and 640 nm; settings: both partners purified
T5 construct: OmpC, outer membrane protein; plasmid pET28a-ompC as template; Held on a streptavidin surface by the biotin of the AviTag; also called biotinylated OmpC; source: E. coli BL21(DE3), purified (Ni-NTA) in 8 M urea; biotinylated by BirA
T5 sequence (looked up): T1 sequence (looked up) with C335D

B1: wild-type Skp (natural protein)
chain: T3 sequence 2
notes: Skp, periplasmic chaperone of gram-negative bacteria; plasmid pET28a-skp; In equilibrium between monomer and homotrimer (Skp3); concentrations are counted in Skp monomer; The printed mass of the labelled His-tagged mutant (18.8 kD) and the residue number D128 fit the mature protein without its signal peptide (surmised); also called Skp3 (trimer); Skp monomer; source: E. coli BL21(DE3) pLysS, …
In the case of B1, the “stoichiometry N” value [1] is reported as 2.8 ± 0.4 Skp:OmpC, the binding result [2] is reported as “binds” and the Kd [3] is reported as 1200 ± 400 nM. For the same binder, the binding result [4] was “binds” and the “stoichiometry N” value [5] was 3.

B2: Skp D128C-AF647 (natural protein)
chain: T3 sequence 2 with D128C
modifications: AF647 (maleimide) on the cysteine of D128C
notes: Skp; plasmid pET28a-skp as template; source: E. coli BL21(DE3) pLysS, purified (Ni-NTA, desalting), labelled in 4 M urea; not shown: His-tag, N-terminal, kept
In the case of B2, the Kd [6] is reported as 0.55 nM and the “stoichiometry N” value [6] is reported as 3.
